The record followed here is US20260217835.

What all share (experiment): SEC area ratio of heteromultimer after coexpression of full-length heavy chain, light chain and Fc fragment in Expi293F
Data set [1] concerns the target T1, IgG1 Fc fragment with CH3 modification K392L/T394W/F405A/Y407V (SEQ ID NO: 70).
T1 chain: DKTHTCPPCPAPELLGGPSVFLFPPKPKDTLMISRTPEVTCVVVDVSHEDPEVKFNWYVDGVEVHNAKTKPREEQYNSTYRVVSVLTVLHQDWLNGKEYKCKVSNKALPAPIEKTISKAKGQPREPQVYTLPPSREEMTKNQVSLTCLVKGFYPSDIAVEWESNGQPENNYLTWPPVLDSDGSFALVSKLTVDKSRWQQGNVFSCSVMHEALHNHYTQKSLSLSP

The target in data set [2] is T2, IgG1 Fc fragment with CH3 modification Q347E/S354Y/T366Y/Y407T (SEQ ID NO: 69).
T2 chain: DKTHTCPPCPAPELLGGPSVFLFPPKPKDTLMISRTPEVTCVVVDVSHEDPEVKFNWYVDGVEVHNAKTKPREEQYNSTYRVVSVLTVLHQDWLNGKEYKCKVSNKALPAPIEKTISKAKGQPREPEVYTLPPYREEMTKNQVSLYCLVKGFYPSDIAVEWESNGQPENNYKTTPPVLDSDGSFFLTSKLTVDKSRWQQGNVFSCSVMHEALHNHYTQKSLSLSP

Data set [3] concerns the target T3, IgG1 Fc fragment with CH3 modification Y349C/E357C/K392D/D399K (SEQ ID NO: 73).
T3 chain: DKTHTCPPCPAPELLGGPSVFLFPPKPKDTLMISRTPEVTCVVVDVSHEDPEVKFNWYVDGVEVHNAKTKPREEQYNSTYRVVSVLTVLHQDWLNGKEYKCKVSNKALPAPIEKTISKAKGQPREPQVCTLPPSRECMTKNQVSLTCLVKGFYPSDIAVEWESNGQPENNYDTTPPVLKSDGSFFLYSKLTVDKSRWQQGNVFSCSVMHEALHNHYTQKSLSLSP

The target of data set [4] is IgG1 Fc fragment with CH3 modification T394W/F405A (SEQ ID NO: 64).
Data set [5] deals with T4, IgG1 Fc fragment with CH3 modification E345R/K360E/D399M/Y407A/K409V (SEQ ID NO: 76).
T4 chain: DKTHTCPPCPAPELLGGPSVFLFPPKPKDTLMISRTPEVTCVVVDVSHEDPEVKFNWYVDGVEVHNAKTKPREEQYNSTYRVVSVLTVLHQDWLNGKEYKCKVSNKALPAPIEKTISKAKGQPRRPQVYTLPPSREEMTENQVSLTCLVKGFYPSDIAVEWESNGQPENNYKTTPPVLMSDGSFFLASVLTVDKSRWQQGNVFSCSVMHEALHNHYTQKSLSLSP

Data set [6] concerns the target T5, IgG1 Fc fragment with CH3 modification E356K/D399K/K409E/K439E (SEQ ID NO: 68).
T5 chain: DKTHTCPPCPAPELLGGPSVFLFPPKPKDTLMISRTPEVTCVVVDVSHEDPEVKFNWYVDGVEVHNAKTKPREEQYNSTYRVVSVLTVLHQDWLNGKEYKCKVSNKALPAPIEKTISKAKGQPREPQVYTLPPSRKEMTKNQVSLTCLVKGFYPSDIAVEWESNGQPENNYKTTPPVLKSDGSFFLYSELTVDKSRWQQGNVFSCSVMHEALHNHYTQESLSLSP

In data set [7] the target is IgG1 Fc fragment, WT (no CH3 modification), SEQ ID NO: 63 in Table 5.
Data set [8] deals with T6, IgG1 Fc fragment with CH3 modification E345R/Q347R/K360D/T366V/D399M/Y407A/K409V (SEQ ID NO: 74).
T6 chain: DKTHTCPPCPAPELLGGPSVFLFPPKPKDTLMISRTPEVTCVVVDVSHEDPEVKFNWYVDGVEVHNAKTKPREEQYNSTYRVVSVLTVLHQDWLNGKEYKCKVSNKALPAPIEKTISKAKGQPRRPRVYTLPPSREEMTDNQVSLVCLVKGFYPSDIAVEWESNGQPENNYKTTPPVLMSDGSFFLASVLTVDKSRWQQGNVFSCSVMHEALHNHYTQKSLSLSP

The target in data set [9] is T7, IgG1 Fc fragment with CH3 modification E356K/K392D/D399K/K439E (SEQ ID NO: 71).
T7 chain: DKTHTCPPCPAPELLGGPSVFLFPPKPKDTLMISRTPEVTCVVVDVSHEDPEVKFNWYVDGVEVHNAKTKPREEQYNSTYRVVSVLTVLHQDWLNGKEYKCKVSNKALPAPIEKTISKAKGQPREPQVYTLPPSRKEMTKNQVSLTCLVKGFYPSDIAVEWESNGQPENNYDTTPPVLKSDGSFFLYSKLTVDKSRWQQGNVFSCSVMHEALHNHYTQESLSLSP

For data set [10], the target named is T8, IgG1 Fc fragment with CH3 modification E356K/K392D/D399K/K409D (SEQ ID NO: 75).
T8 chain: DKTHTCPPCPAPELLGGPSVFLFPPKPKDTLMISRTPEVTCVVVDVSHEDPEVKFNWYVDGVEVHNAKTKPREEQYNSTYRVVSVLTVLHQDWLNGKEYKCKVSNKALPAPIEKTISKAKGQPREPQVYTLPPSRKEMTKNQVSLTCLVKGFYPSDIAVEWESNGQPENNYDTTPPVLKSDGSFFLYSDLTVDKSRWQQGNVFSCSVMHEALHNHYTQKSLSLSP

B1: full-length IgG heavy chain with CH3 modification Y349C/E357C/K392D/D399K (SEQ ID NO: 51), coexpressed with light chain SEQ ID NO: 61 (protein)
chain 1: QVQLQESGPGLVRPSQTLSLTCTVSGYSITSDHAWSWVRQPPGRGLEWIGYISYSGITTYNPSLKSRVTMLRDTSKNQFSLRLSSVTAADTAVYYCARSLARTTAMDYWGQGSLVTVSSASTKGPSVFPLAPSSKSTSGGTAALGCLVKDYFPEPVTVSWNSGALTSGVHTFPAVLQSSGLYSLSSVVTVPSSSLGTQTYICNVNHKPSNTKVDKRVEPKSCDKTHTCPPCPAPELLGGPSVFLFPPKPKDTLMISRTPEVTCVVVDVSHEDPEVKFNWYVDGVEVHNAKTKPREEQYNSTYRVVSVLTVLHQDWLNGKEYKCKVSNKALPAPIEKTISKAKGQPREPQVCTLPPSRECMTKNQVSLTCLVKGFYPSDIAVEWESNGQPENNYDTTPPVLKSDGSFFLYSKLTVDKSRWQQGNVFSCSVMHEALHNHYTQKSLSLSP
chain 2: not shown
Turning to B1, the heterodimer formation ratio (%) in data set [1] is 0%; in [2], 0%; in data set [3], 56%; in data set [4] it was 0%; in [5], 0%; in [6], 0%. The heterodimer formation ratio (%) in data set [7] was 0%; in data set [8] it was 2%; in [9] it was 0%; in data set [10], 0%.

B2: full-length IgG heavy chain with CH3 modification E345R/Q347R/K360D/T366V/D399M/Y407A/K409V (SEQ ID NO: 55), coexpressed with light chain SEQ ID NO: 61 (protein)
chain 1: QVQLQESGPGLVRPSQTLSLTCTVSGYSITSDHAWSWVRQPPGRGLEWIGYISYSGITTYNPSLKSRVTMLRDTSKNQFSLRLSSVTAADTAVYYCARSLARTTAMDYWGQGSLVTVSSASTKGPSVFPLAPSSKSTSGGTAALGCLVKDYFPEPVTVSWNSGALTSGVHTFPAVLQSSGLYSLSSVVTVPSSSLGTQTYICNVNHKPSNTKVDKRVEPKSCDKTHTCPPCPAPELLGGPSVFLFPPKPKDTLMISRTPEVTCVVVDVSHEDPEVKFNWYVDGVEVHNAKTKPREEQYNSTYRVVSVLTVLHQDWLNGKEYKCKVSNKALPAPIEKTISKAKGQPRRPRVYTLPPSREEMTDNQVSLVCLVKGFYPSDIAVEWESNGQPENNYKTTPPVLMSDGSFFLASVLTVDKSRWQQGNVFSCSVMHEALHNHYTQKSLSLSP
chain 2: not shown
Regarding B2, the heterodimer formation ratio (%) amounted to 0% in [1]; 0% in [2]; 0% in data set [3]; 0% in [4]; 49% in data set [5]; 0% in data set [6]. In addition, the heterodimer formation ratio (%) worked out at 0% in data set [7], 52% in [8], 0% in [9] and 0% in [10].

B3: full-length IgG heavy chain with CH3 modification E356K/K392D/D399K/K409D (SEQ ID NO: 56), coexpressed with light chain SEQ ID NO: 61 (protein)
chain 1: QVQLQESGPGLVRPSQTLSLTCTVSGYSITSDHAWSWVRQPPGRGLEWIGYISYSGITTYNPSLKSRVTMLRDTSKNQFSLRLSSVTAADTAVYYCARSLARTTAMDYWGQGSLVTVSSASTKGPSVFPLAPSSKSTSGGTAALGCLVKDYFPEPVTVSWNSGALTSGVHTFPAVLQSSGLYSLSSVVTVPSSSLGTQTYICNVNHKPSNTKVDKRVEPKSCDKTHTCPPCPAPELLGGPSVFLFPPKPKDTLMISRTPEVTCVVVDVSHEDPEVKFNWYVDGVEVHNAKTKPREEQYNSTYRVVSVLTVLHQDWLNGKEYKCKVSNKALPAPIEKTISKAKGQPREPQVYTLPPSRKEMTKNQVSLTCLVKGFYPSDIAVEWESNGQPENNYDTTPPVLKSDGSFFLYSDLTVDKSRWQQGNVFSCSVMHEALHNHYTQKSLSLSP
chain 2: not shown
As for B3, the heterodimer formation ratio (%) in data set [1] is 0%; in data set [2] it was 0%; in data set [3], 0%; in data set [4], 0%; in data set [5], 0%; in data set [6], 53%. In addition, the heterodimer formation ratio (%) in data set [7] was 0%; in data set [8], 0%; in data set [9], 60%; in [10], 56%.

B4: full-length IgG heavy chain with CH3 modification E345R/K360E/D399M/Y407A/K409V (SEQ ID NO: 58), coexpressed with light chain SEQ ID NO: 61 (protein)
chain 1: QVQLQESGPGLVRPSQTLSLTCTVSGYSITSDHAWSWVRQPPGRGLEWIGYISYSGITTYNPSLKSRVTMLRDTSKNQFSLRLSSVTAADTAVYYCARSLARTTAMDYWGQGSLVTVSSASTKGPSVFPLAPSSKSTSGGTAALGCLVKDYFPEPVTVSWNSGALTSGVHTFPAVLQSSGLYSLSSVVTVPSSSLGTQTYICNVNHKPSNTKVDKRVEPKSCDKTHTCPPCPAPELLGGPSVFLFPPKPKDTLMISRTPEVTCVVVDVSHEDPEVKFNWYVDGVEVHNAKTKPREEQYNSTYRVVSVLTVLHQDWLNGKEYKCKVSNKALPAPIEKTISKAKGQPRRPQVYTLPPSREEMTENQVSLTCLVKGFYPSDIAVEWESNGQPENNYKTTPPVLMSDGSFFLASVLTVDKSRWQQGNVFSCSVMHEALHNHYTQKSLSLSP
chain 2: not shown
On to B4, for which the heterodimer formation ratio (%) in data set [1] came out at 0%; in [2], 0%; in [3], 0%; in [4] it was 0%; in data set [5], 51%; in data set [6] it was 0%. Further, the heterodimer formation ratio (%) in [7] worked out at 0%; in data set [8] it was 51%; in data set [9], 0%; in [10], 0%.
